From paper PMC2723102 (2009)
Where no end group is shown, it is not given here. [ ]: non-standard residue; d: D form. pY = N[C@@H](Cc1ccc(OP(=O)(O)O)cc1)C(=O)O; pT = C[C@@H](OP(=O)(O)O)[C@H](N)C(=O)O

T1: GST-X11β (domain)
T1 chain: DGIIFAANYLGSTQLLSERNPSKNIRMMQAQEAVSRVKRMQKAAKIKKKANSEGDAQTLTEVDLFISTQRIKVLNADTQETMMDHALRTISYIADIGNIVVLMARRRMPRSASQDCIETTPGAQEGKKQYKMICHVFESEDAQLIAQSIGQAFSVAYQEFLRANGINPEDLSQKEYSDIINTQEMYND

T2: GST-NUMB-p71 (region with the PTB domain)
T2 chain: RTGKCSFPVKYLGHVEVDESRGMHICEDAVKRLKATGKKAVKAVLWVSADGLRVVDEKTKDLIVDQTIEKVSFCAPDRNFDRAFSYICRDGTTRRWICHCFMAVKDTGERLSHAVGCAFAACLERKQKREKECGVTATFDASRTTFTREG

B1: strep-tag AID peptide phosphorylated on Tyr-682 (peptide)
chain: VMLKKKQYTSIHHGVVEVDAAVTPEERHLSKMQQNG[pY]ENPTYKFFEQMQN
modifications: also: strep-tag, place not given here
B2: strep-tag AID peptide phosphorylated on Thr-668 (peptide)
chain: VMLKKKQYTSIHHGVVEVDAAV[pT]PEERHLSKMQQNGYENPTYKFFEQMQN
modifications: also: strep-tag, position not given here
B3: strep-tag AID peptide (APP intracellular domain, last 50 amino acids of APP), non-phosphorylated (peptide)
chain: VMLKKKQYTSIHHGVVEVDAAVTPEERHLSKMQQNGYENPTYKFFEQMQN
modifications: also: strep-tag, position not given here
B4: strep-tag AID peptide phosphorylated on Thr-668 and Tyr-682 (peptide)
chain: VMLKKKQYTSIHHGVVEVDAAV[pT]PEERHLSKMQQNG[pY]ENPTYKFFEQMQN
modifications: also: strep-tag, place not given here

Legend:
Experiment in all cases: SPR
[1] = molecular target: GST-Grb2 domain (GST-SH2 recombinant protein)
GST-Grb2 domain (GST-SH2 recombinant protein), sequence (chain, as listed by the source): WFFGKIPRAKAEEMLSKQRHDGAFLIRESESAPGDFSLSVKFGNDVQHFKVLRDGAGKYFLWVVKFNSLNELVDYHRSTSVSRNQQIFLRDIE

GST-X11β (domain) = molecular target: T1, GST-X11β (domain)
[2] = molecular target: T2, GST-NUMB-p71 (region with the PTB …)

Binder | Kd [1] | Kd (GST-X11β (domain)) | Kd [2]
B1 | 2.57 nM |  | 
B2 |  | 33.5 nM | 
B3 |  | 8.48 nM | 105 nM
B4 | 0.413 nM | 13.1 nM | 
